Molecular target: UDP-glucose pyrophosphorylase from sugarcane (ScUGPase-1) (sugarcane (Saccharum spp. hybrids))
Experiment: SEC-MALS; sample of the larger oligomeric form peak; Superdex 200 increase 5/150, room temperature, 2.0 mg/mL, 20 mM Tris/HCl pH 8.0, 20 mM NaCl

stoichiometry N: 8
Substance: UDP-glucose pyrophosphorylase from sugarcane (ScUGPase-1) (from UniProt A0A075E2Q1 1-476) (enzyme)

— PMC5832301
